Reference: article PMC7229837, “Molecular architecture of the DNA-binding sites of the P-loop ATPases MipZ and ParA from Caulobacter crescentus”
Positions count from the first letter of the chain named.

What was measured:
Test in all cases: MST; low-affinity group, KD >> 10 uM; EMSA: 10 mM HEPES/NaOH pH 7.2, 150 mM NaCl, 10 mM MgCl2, 0.05% Tween 20, 0.46 mM ATPgS, room temp; BLI: 50 mM HEPES/NaOH pH 7.2, 50 mM NaCl, 5 mM MgCl2, 0.1 mM
MipZ R196A = target: T1, MipZ R196A (Caulobacter crescentus, UniProt Q9A6C9 1-278, R196A); settings: protein: recombinant; tags: C-terminal His6 (pET21a); chain copies: 2; label: Cy3 (5') on strand 1; blunt
T1 sequence: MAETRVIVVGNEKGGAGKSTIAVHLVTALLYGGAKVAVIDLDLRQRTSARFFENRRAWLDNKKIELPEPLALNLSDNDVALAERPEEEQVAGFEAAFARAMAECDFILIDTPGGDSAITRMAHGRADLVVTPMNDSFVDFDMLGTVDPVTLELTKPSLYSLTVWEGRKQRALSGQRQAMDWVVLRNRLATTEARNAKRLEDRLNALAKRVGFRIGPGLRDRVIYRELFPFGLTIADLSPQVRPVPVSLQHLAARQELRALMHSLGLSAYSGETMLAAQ

MipZ L237A = target: T2, MipZ L237A (Caulobacter crescentus, UniProt Q9A6C9 1-278, L237A); settings: protein: recombinant; tags: C-terminal His6 (pET21a); chain copies: 2; label: Cy3 (5') on strand 1; blunt
T2 sequence: T1 sequence with A196R, L237A

MipZ K13A = target: T3, MipZ K13A (Caulobacter crescentus, UniProt Q9A6C9 1-278, K13A); settings: protein: recombinant; tags: C-terminal His6 (pET21a); label: Cy3 (5') on strand 1; blunt
T3 sequence: T1 sequence with K13A, A196R

MipZ R219A = target: T4, MipZ R219A (Caulobacter crescentus, UniProt Q9A6C9 1-278, R219A); settings: protein: recombinant; tags: C-terminal His6 (pET21a); chain copies: 2; label: Cy3 (5') on strand 1; blunt
T4 sequence: T1 sequence with A196R, R219A

MipZ R242A = target: T5, MipZ R242A (Caulobacter crescentus, UniProt Q9A6C9 1-278, R242A); settings: protein: recombinant; tags: C-terminal His6 (pET21a); chain copies: 2; label: Cy3 (5') on strand 1; blunt
T5 sequence: T1 sequence with A196R, R242A

MipZ K197A = target: T6, MipZ K197A (Caulobacter crescentus, UniProt Q9A6C9 1-278, K197A); settings: protein: recombinant; tags: C-terminal His6 (pET21a); chain copies: 2; label: Cy3 (5') on strand 1; blunt
T6 sequence: T1 sequence with A196R, K197A

Measured: Kd

B1: rand-Cy3/rand-rev 26 bp (dsDNA)
DNA 1: GAGGCAGACTAGATCTTCTAGTTCGG
DNA 2: CCGAACTAGAAGATCTAGTCTGCCTC
> 10 µM: MipZ R196A | MipZ L237A | MipZ K13A | MipZ R219A | MipZ R242A | MipZ K197A
